Measured values taken from the supplement of paper PMC10126150.
± gives the standard deviation of the averaged measurements.

Tested on: ATP
Assay: switch fluorescence ratio, 500 uM ATP over buffer (Cy3 cluster intensity, sum of 5 cycles each) (fold (ratio)); higher = stronger signal-on switching upon ATP binding; sequences stand for … in TCGTCGGCAGCGTCAGATGTGTATAAGAGACAGTTTTTTTTTTTTTTTTTTTTTTTTT…TC
Details: aptamer strand: ATP DNA aptamer (quencher-CACCTGGGGGAGTATTGCGGAGGAAGG + anchor), 100 nM annealed; ATP concentration: 500 uM
Summary of the method: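 Cy3-labelled switching-strand clusters on a modified Illumina MiSeq flow-cell were annealed to 100 nM quencher-labelled ATP aptamer, imaged in selection buffer, then imaged after 15 min with 500 uM ATP at 22 °C. Five buffer/ATP cycles ran, with NaOH stripping and re-annealing between them. The fluorescence ratio is summed target-cycle over summed buffer-cycle Cy3 intensity per cluster, averaged per switch-domain sequence. Clusters outside 100-1000 RFU were excluded.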
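Also: ATP exposure 15 min at 22 °C before imaging.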

Sequence | switch fluorescence ratio
GGCTTTTTTT | 0.994 ± 0.029
TGGATATAGA | 1.01 ± 0.017
ATGTATCATA | 0.993 ± 0.025
CTTTGTCAGT | 0.979 ± 0.03
TGGGGAAAGC | 0.983 ± 0.014
ATAAAGTTGA | 1 ± 0.034
TTAAACTGGT | 1.04 ± 0.034
CTTATTAACT | 0.9954 ± 0.0069
GCTTTAGAGA | 0.985 ± 0.019
ACTGGTGACT | 1.01 ± 0.037
AGATTGGGGA | 1.01 ± 0.013
CCTTGTTATC | 1.1 ± 0.1
ACGGAAAAAG | 1.01 ± 0.026
GTGTTGGAGG | 0.996 ± 0.017
GCGGTTAAGG | 0.9577 ± 0.006
TTATTCAGTC | 0.98 ± 0.046
AGTGAGCTTG | 0.9818 ± 0.0038
AAGTCGCTGT | 1.02 ± 0.016
CGATCCAGTG | 1.39 ± 0.061
CAAAGGGGAT | 0.99484 ± 0.00073
AGGTACGCTC | 0.99314 ± 0.00048
CCCGCTAAGG | 1.19 ± 0.028
TTAGTATTCT | 0.992 ± 0.031
CTTAAATTAA | 0.989 ± 0.051
ATTGGTGATT | 0.974 ± 0.038

Sequence | switch fluorescence ratio
CAGTGAATGT | 0.976 ± 0.039
TTCATCGACT | 0.996 ± 0.047
TCTAATGGAA | 1.01 ± 0.018
TTTACGAAAG | 1.04 ± 0.044
TGCGTAGAGG | 1.037 ± 0.006
AACGATAAAT | 1.03 ± 0.014
TGTATAGGGT | 1.01 ± 0.048
GTTTCTTTTA | 0.99 ± 0.02
CATAGGAAGG | 0.987 ± 0.013
CATTAGGTCT | 0.981 ± 0.038
GGGTGTAGTT | 0.999 ± 0.036
GCCATGGCGT | 1.02 ± 0.031
TGGACTTGGG | 0.983 ± 0.023
TATATCAGTT | 1.007 ± 0.0087
TAGACCTCCC | 1.81 ± 0.16
GAATGGGACG | 1 ± 0.021
AGAGGGTAGT | 1.01 ± 0.022
GTGCTATCTA | 1 ± 0.023
TGGGGGTATG | 1 ± 0.02
CACATCATAT | 1.04 ± 0.039
GATAGAATGA | 1.014 ± 0.0096
GGATGCGCCT | 1.06 ± 0.15
GAGATTTTTT | 1.018 ± 0.0091
TGGTGATGGT | 1.03 ± 0.058
TGAAATGAAT | 0.994 ± 0.02

Sequence | switch fluorescence ratio
CTGATTATCT | 0.989 ± 0.02
ATGGCAAAAG | 1.01 ± 0.045
TTTAGATATA | 1.031 ± 0.0011
CATAATTGCT | 1.01 ± 0.0059
TTAGGGCTTT | 1.01 ± 0.035
GTTATACGTA | 1.03 ± 0.019
CCTTGAGGGA | 1.06 ± 0.11
ATTTGGAAGT | 1.02 ± 0.018
GGCCGGGGAG | 0.981 ± 0.018
GGGTATGAAG | 1.04 ± 0.049
TTTTTTTGGG | 1 ± 0.036
GAGAGGGGTA | 0.974 ± 0.014
TTAAAACCGT | 1.02 ± 0.029
AGCGCTGCCT | 0.996 ± 0.031
AAAGCTGTAG | 1.02 ± 0.038
AAGTTTTGCA | 1.007 ± 0.0091
CCGCCTTGTT | 1.11 ± 0.044
TTACTCTCTG | 1.03 ± 0.025
GCATTAATG | 1.03 ± 0.021
ACAGTCGTAG | 1 ± 0.015
GTCAGTGCTA | 1.0169 ± 0.001
TGACGTTATG | 1 ± 0.053
TTAGAGACGC | 1.06 ± 0.021
TCTGAGACGC | 1.05 ± 0.019
ATAAGGTCTA | 0.971 ± 0.015

Sequence | switch fluorescence ratio
GACGTCTGGC | 1.14 ± 0.24
TATGGCGGGT | 1 ± 0.014
AGGGGGGGC | 0.991 ± 0.015
AGTTAGGCCT | 1.02 ± 0.039
ATTTAACGAG | 1.01 ± 0.021
AATCGTACGT | 0.959 ± 0.04
TCAGATATAC | 1.581 ± 0.0082
GAAATTTTGC | 0.995 ± 0.033
CGGCTGCGTG | 0.998 ± 0.0073
GAGTCGGGTA | 1.028 ± 0.0097
TCAATAGTAC | 1.084 ± 0.0024
GGCCAAGTTG | 0.994 ± 0.017
ATTGTTCTGA | 1.01 ± 0.032
AGGGGGGGGA | 1.01 ± 0.05
AGAATCGACT | 0.997 ± 0.014
ATAAGGTTGT | 0.977 ± 0.025
GGGGTAAGAG | 1.019 ± 0.0038
GGTTGACCTG | 1 ± 0.032
GGGCCCGGTT | 1.005 ± 0.0068
ATAATACCTT | 1.15 ± 0.094
TGGGGATATT | 0.9965 ± 0.0016
TTTGAGCAGA | 0.97 ± 0.02
ATGTAAAATG | 1.04 ± 0.066
ATGCGCAGGG | 1.04 ± 0.051
TGTGGGGAAT | 1.04 ± 0.075

Sequence | switch fluorescence ratio
TGGTTTGTGG | 0.974 ± 0.037
TTAGGGGTCG | 1 ± 0.041
GGACCGTTTT | 0.998 ± 0.016
TTTGCAATAA | 2.35 ± 1.7
ATCGAGTCTA | 0.953 ± 0.017
TTTCGATTTT | 0.993 ± 0.04
TTTGCTTAGG | 0.993 ± 0.037
CTAAGCTTTG | 1 ± 0.035
TCCGTGAGAT | 1.44 ± 0.047
AATAGGGACC | 1.07 ± 0.089
TTTTATGTGT | 0.992 ± 0.035
AAATTTTTGT | 1.001 ± 0.0065
TTTCGTGGTC | 1.02 ± 0.015
CATTGATGAA | 0.988 ± 0.06
GATGACGAAT | 1.023 ± 0.0047
CATTGAATGG | 1 ± 0.015
AGTGGAGTCA | 1.02 ± 0.035
GTTGGAATGA | 1 ± 0.037
ATGAATTGTT | 0.974 ± 0.02
TTATTTGGGT | 1 ± 0.021
AGTATCACAG | 0.9621 ± 0.0047
TCCGTATATT | 1.103 ± 0.0024
TGGGACGTTT | 0.934 ± 0.046
GATGTCTAGC | 0.9894 ± 0.0065
GATTTTGCAT | 1 ± 0.028

Sequence | switch fluorescence ratio
ATTGAGCGGA | 1.0358 ± 0.001
ATTAGGTTGG | 0.987 ± 0.027
CACGGGGTCC | 1.06 ± 0.069
TTCGAAGGCT | 0.995 ± 0.017
TGAGAGTTTG | 0.987 ± 0.017
ATTTTAGGTT | 0.984 ± 0.03
AAAATGTCGG | 0.998 ± 0.012
TTTCCACAGG | 1.396 ± 0.0082
AGTCATGTGG | 1.01 ± 0.019
AGTGAAAATG | 1.05 ± 0.029
TTGTTGTAGG | 0.993 ± 0.041
TGGCAGGGGG | 0.945 ± 0.029
GGGGGGTTAG | 0.991 ± 0.029
GGTGTATAAA | 0.967 ± 0.054
CCAGTGTGGT | 1.07 ± 0.074
CGGGATGTCA | 0.955 ± 0.038
GCTCCAGGTA | 1.577 ± 0.0021
TGGCGGAAGG | 0.999 ± 0.044
ATTTTATTGT | 1 ± 0.05
TGCTAAATTG | 1.015 ± 0.0015
ATAATTAAGA | 0.992 ± 0.014
TTTTCGAAGG | 1.005 ± 0.0028
AATTGGCCGG | 0.989 ± 0.011
GCTAGAGGGT | 1.02 ± 0.027
ACATTATGGA | 1.035 ± 0.0081

Sequence | switch fluorescence ratio
GCATTTGGGG | 0.9686 ± 0.0032
CCGGTTACAG | 1.07 ± 0.0078
TCCATAAGGG | 1.01 ± 0.023
TAGGGGGTTA | 0.992 ± 0.046
AGTAGATTCC | 1.042 ± 0.01
GTGATTTGGG | 1.01 ± 0.0076
GTAGGACCTA | 1.01 ± 0.018
TTTTGTATGG | 0.9893 ± 0.0079
AGCGAGTGTG | 1 ± 0.026
TTTCTACTCG | 0.995 ± 0.017
AACTTTTAGT | 0.99353 ± 0.00074
TGAAAAGAGG | 0.988 ± 0.021
AGGTTGCGGG | 1 ± 0.014
AAAAAGGAGG | 1 ± 0.015
CGTGAGATTA | 0.9846 ± 0.0009
TCGGATCCAA | 1.048 ± 0.0022
GTGTATAGTG | 0.982 ± 0.018
AATAGTTGGA | 0.9846 ± 0.0064
ATTTTTAGCA | 0.99765 ± 0.00045
TTTTTAAGAT | 0.995 ± 0.035
TTACGCAAGT | 1.27 ± 0.17
TGACGGGGTT | 0.992 ± 0.026
TTTTTCGCGG | 1.01 ± 0.015
CATGAGGAGT | 1.01 ± 0.0022
TCGGTTCATT | 0.9962 ± 0.004

Sequence | switch fluorescence ratio
ACTTTGAAGT | 0.993 ± 0.024
TTACATGTTC | 0.996 ± 0.025
GGGGTAAGTT | 0.989 ± 0.035
TTTCCAGTTC | 1.37 ± 0.57
TTAAGATTTC | 1.13 ± 0.14
TGTGAAGGGC | 1.02 ± 0.029
GAGGTTGATG | 1.01 ± 0.02
ACATGGGATT | 1.01 ± 0.043
CTCGGCGCGC | 1.024 ± 0.0044
CGTAGGGAAT | 1.014 ± 0.0064
ATAAGGGAGT | 0.9909 ± 0.0033
AAGAGACTGT | 1.002 ± 0.0034
TTGGGAGCTT | 1.01 ± 0.048
GATAGGCGGG | 0.9795 ± 0.0094
CGTTTCGCCC | 1.04 ± 0.038
GGATATTGGC | 0.977 ± 0.092
TGGATTCATG | 0.978 ± 0.06
ATACGGGAGT | 1 ± 0.0018
TAAAATCCGT | 0.981 ± 0.011
TGTTTTTAAA | 0.979 ± 0.029
GGAATCATTT | 0.972 ± 0.015
GACGCTAAGG | 1.094 ± 0.0069
TGGGACATTT | 1.04 ± 0.057
ATTTGTTTCT | 0.9993 ± 0.0079
TGGCGCCACT | 0.976 ± 0.013
